Bridge positions count the residues as written; N and C are the ends. Ends that are not written are not given here.

Test [1] deals with human melanin-concentrating hormone receptor (MCH-1R) (human) (UniProt Q99705). Briefly: scintillation proximity assay, HEK293-AEQ17/MCH-1R membranes; non-specific binding defined with 500 nM unlabeled MCH. On the technique in general: Scintillation proximity formats need no separation of bound from free tracer.
The subject of test [2] is MCH-1R(Δ316/EGFP). Briefly: Functional activation, aequorin assay (mobilization of intracellular calcium). The format is cell-based, human. Conditions: FIG. 6; transiently transfected HEK293-AEQ17 cells, aequorin bioluminescence. The procedure:
Functional activation of MCH-1R […] was measured in an aequorin assay. Proteins were introduced in the stable reporter cell line HEK293-AEQ17 in which mobilization of intracellular calcium can be detected by bioluminescence of jelly fish aequorin upon calcium binding.
Bioluminescence was detected using a Luminoskan RT luminometer (Labsystems Inc., Gaithersburg, Md.). HEK293-AEQ17 cells were maintained in D-MEM/high glucose medium (Life Technologies, Rockville, Md.) supplemented with 10% fetal bovine serum, […] G418, 25 mM Hepes at 37° C. with 5% CO2 in a humidified atmosphere. […]
The cells were harvested, washed once in ECB medium and resuspended to 500,000 cells/ml. […] of cell suspension (corresponding to 5×10^4 cells) was then injected into a 96-well test plate, and the integrated light emission was recorded over 30 seconds, in 0.5 second units. 20 μL of lysis buffer (0.1% final Triton X-100 concentration) was then injected and the integrated light emission recorded over 10 seconds, in 0.5 second units. The “fractional response” values for each well were calculated by taking the ratio of the integrated response to the initial challenge to the total integrated luminescence including the Triton X-100 lysis response.
For orientation: Calcium flux is commonly read through the fluorescence of an indicator in the cells.

Chain of human melanin-concentrating hormone receptor (MCH-1R) (human) (Q99705 whole entry): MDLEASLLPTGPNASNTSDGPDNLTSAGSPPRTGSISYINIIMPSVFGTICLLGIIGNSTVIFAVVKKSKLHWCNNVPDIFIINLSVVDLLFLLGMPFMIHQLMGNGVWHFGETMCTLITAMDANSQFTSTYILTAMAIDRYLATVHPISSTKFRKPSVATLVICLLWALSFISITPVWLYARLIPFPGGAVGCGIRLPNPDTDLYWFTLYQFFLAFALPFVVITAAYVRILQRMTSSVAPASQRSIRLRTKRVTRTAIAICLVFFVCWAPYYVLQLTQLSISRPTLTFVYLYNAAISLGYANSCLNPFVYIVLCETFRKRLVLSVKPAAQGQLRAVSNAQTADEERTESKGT

For “[125I]Phe13Tyr19-MCH (from UniProt P20382 147-165) (peptide)”, the specific binding window in test [1] was > 6 x (fold).
Take “Melanin-concentrating hormone (DFDMLRCMLGRVYRPCWQV; disulfide 7-16 (inferred); ends not checked) [MCH, cyclic 19-amino acid neuropeptide, MCH-1R agonist]”: the “functional activation of MCH-1R(Δ316/EGFP) (mobilization of intracellular calcium)” value in test [2] is “lack of functional activation”.

Values taken from US20050069883A1 (priority 2001, published 2005).
